{
  "source": "paper PMC2528291",
  "about": "(Journal of molecular biology, 2001)",
  "test_in_all_cases": "SEC",
  "key": {"[1]": {"target": "flagellin (FliC) of S. typhimurium SJW1103 (S. typhimurium (endogenous in SJW1103)) (UniProt P06179)", "sequence (P06179 whole entry)": "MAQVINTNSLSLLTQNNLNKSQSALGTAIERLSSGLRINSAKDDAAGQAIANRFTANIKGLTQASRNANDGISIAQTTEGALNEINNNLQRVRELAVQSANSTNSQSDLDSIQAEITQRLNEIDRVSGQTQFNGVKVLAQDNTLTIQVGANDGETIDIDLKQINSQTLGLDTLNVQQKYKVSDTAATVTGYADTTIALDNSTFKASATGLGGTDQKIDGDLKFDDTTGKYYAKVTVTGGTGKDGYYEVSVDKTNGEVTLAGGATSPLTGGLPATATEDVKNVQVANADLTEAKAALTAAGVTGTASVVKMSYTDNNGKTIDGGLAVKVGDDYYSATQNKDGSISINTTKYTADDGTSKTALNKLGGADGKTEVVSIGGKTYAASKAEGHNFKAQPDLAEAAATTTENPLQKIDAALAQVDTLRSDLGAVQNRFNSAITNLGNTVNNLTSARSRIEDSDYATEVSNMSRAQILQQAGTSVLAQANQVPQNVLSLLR"}, "SEC [2]": {"target": "the molecule itself"}, "SEC [3]": {"target": "the molecule itself", "remark": "listed apart in the source"}},
  "note": "Like-named read-outs stand apart in the source and are kept apart here.",
  "data": [
    {"molecule": "His6-FliS (from pET-FliS) (from UniProt P26609 1-135) (natural protein)", "values": [
      {"measurement": "stoichiometry N (FliS per FliC)", "setting": "[1]", "result": 2}
    ]},
    {"molecule": "FliS (native, cytosolic, of S. typhimurium SJW1103) (natural protein, S. typhimurium (endogenous in SJW1103), UniProt P26609 1-135, looked up) MYTASGIKAYAQVSVESAVMSASPHQLIEMLFDGANSALVRARLFLEQGDVVAKGEALSKAINIIDNGLKAGLDQEKGGEIATNLSELYDYMIRRLLQANLRNDAQAIEEVEGLLSNIAEAWKQISPKASFQESR", "values": [
      {"measurement": "stoichiometry N", "setting": "SEC [2]", "result": 2}
    ]},
    {"molecule": "His6-FliS (from pET-FliS) (natural protein, S. typhimurium, UniProt P26609 1-135, looked up, [35S]methionine label (in the affinity blots only)) MYTASGIKAYAQVSVESAVMSASPHQLIEMLFDGANSALVRARLFLEQGDVVAKGEALSKAINIIDNGLKAGLDQEKGGEIATNLSELYDYMIRRLLQANLRNDAQAIEEVEGLLSNIAEAWKQISPKASFQESR", "values": [
      {"measurement": "stoichiometry N", "setting": "SEC [3]", "result": 2}
    ]}
  ]
}
